Experimental data published in the nanobody polyreactivity screen of Harvey et al. (2022).

Test: yeast display, Sf9 membrane polyspecificity reagent, FACS + sequencing; frameworks hold sequencing errors
Procedure, shortened: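 Galactose induction of a Saccharomyces cerevisiae BJ5465 synthetic nanobody display library ran 36–48 hours. The cells were then stained for 1 hour at 4 °C with 10% biotinylated, detergent-solubilized Sf9 membrane reagent, pulled down on streptavidin microbeads and FACS-sorted into low and high (top ~1%) gates on expression and reagent-binding fluorescence. Labels for polyreactivity follow the gate of origin.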

Sequence	polyreactivity (PSR sort gate)
QVQLVESGGGLVQAGGSLRLSCAASGIIFAKYAMGWYRQAPGKERELVAAISRSGGSTYYADSVKGRFTISRDNAKNTVYLQMNSLKPEDTAVYYCAAAYYRDGGDFDYWGQGTQVTVSS	high polyreactivity
QVQLVESGGGLVQAGGSLRLSCAASGIIFAQYAMGWYRQAPGKERELVAAISWSGGSTYYADSVKGRFTISRDNAKNTVYLQMNSLKPEDTAVYYCAADGYYGYYSQYEYLYYYWGQGTQVTVSS	high polyreactivity
QVQLVESGGGLVQAGGSLRLSCAASGIIFARNTMGWYRQAPGKERELVAAITSSGGNTYYADSVKGRFTISRDNAKNTVYLQKNSLKPEDTAVYYCAAYSRTLYPDRYYWGQGTQVTVSS	high polyreactivity
QVQLVESGGGLVQAGGSLRLSCAASGIIFARYAMGWYRQAPGKERELVAAITSGGGTSYADSVKGRFTISRDNAKNTVYLQMNSLKPEDTAVYYCNADGYLAERFVIRLDEYRDYDYWGQGTQVTVSS	low polyreactivity
QVQLVESGGGLVQAGGSLRLSCAASGIIFARYAMGWYRQAPGKERELVASINWTGGNTYADSVKGRFTISRDNAKNTVYLQMNSLKPEDTAVYYCARDFCPGSSDPKASISFDHWGQGTQVTVSS	low polyreactivity
QVQLVESGGGLVQAGGSLRLSCAASGIIFAWNTMGWSRHPPGKERELVAAISSSGGSTYYADSVKGRFTISRDNAKNTVYLQMNSLKPEDTAVYYCAADGYHWIHEYDYWGQGTQVTVSS	low polyreactivity
QVQLVESGGGLVQAGGSLRLSCAASGIIFAWYAMGWYRQAPGKERELVAAINWSGGSTYYADSVKGRFTISRDYAKNTVYLQMNSLKPEDTAVYYCARSSRGKLDYWGQGTQVTVSS	low polyreactivity
QVQLVESGGGLVQAGGSLRLSCAASGIIFAWYAMGWYRQAPGKERELVAGISQSGGRTYYADSVKGRFTISRDNAKNSVYLQMNSLKPEDTAVYYCAAQWYYSPYVSGDYWGQGTQVTVSS	high polyreactivity
QVQLVESGGGLVQAGGSLRLSCAASGIIFAYAMGWYRQAPAKEREMVAAISGRDGSTYYADSVKGRFTISRDNAKNTVYLQMNSLKPDDTAVYYCAKRFSDLPVEMDYWGQGTQVTVSS	low polyreactivity
QVQLVESGGGLVQAGGSLRLSCAASGIIFDDYAMGWYRQAPGKERELVAAISVSGGSTYYADSVKGRFTISRDNAKNTVYLQMNSLKPEDTAVYYCAARLRQPYTRGNYWGQGTQVTVSS	high polyreactivity
QVQLVESGGGLVQAGGSLRLSCAASGIIFDEYAMGWYRQAPGKERELVAVIDWSGGSTYYADSVKGRFTISRDNAKNTFFLQMNSLKPEDTAVYYCAAEDDSTTPEFDYWGQGTQVTVSS	low polyreactivity
QVQLVESGGGLVQAGGSLRLSCAASGIIFDHNAMGWYRQAPGKERELVAAISTGGGNTYYADSVKGRFTISRDNAKNTVYLQMNSLKPEDTAVYYCATEPGYSYLTSYKYVYWGQGTQVTVSS	low polyreactivity
QVQLVESGGGLVQAGGSLRLSCAASGIIFDRYAMGWYRQAPGKEREFVAAISRRGGSTYYADSVKGRFTISRDNAKNTVYLQMNSLKPEDTAVYYCAKEIRYSSSVSESDYWGQGTQVTVSS	high polyreactivity
QVQLVESGGGLVQAGGSLRLSCAASGIIFDRYAMGWYRQAPGKERELVAAITYGGGSTYYADSVKGRFTISRDNAKNTVYLQMNSLKPEDTAVYYCAAVPRSGMYYWGQGTQVTVSS	high polyreactivity
QVQLVESGGGLVQAGGSLRLSCAASGIIFDSNAMGWYRQAPGKERELVAAITRTATRTYYADSVKGRFTISRDQAQNTVYLQMNSLKPEDTAFYYCADRGSTPQPGVGYWGQGTQVTVSS	high polyreactivity
QVQLVESGGGLVQAGGSLRLSCAASGIIFDSYAMGLYRQAPGKERELVAAITSRGGRTYYADSVKRRFTISRENAKNTVYLQMNSLKPEDTAVYYCAARAIYDRRTEGTSGYDYWGPGTQVTVSS	low polyreactivity
QVQLVESGGGLVQAGGSLRLSCAASGIIFDTNAMGWYRQAPGKERELVASISKRGGSTYYADSVKGRFTISRDNAKNTVYLQMNSLKPEDTAVYYCNALRRRQYHDDYWGQGTQVTVSS	high polyreactivity
QVQLVESGGGLVQAGGSLRLSCAASGIIFDTYTMGWTRHSPGKERELVAAITRRGSRTYYADSVKGRFTISRDNAKNTVYLQMNSLKREDTAVYYCNAVPRWSYVDEDSWGQGTQVTVSS	high polyreactivity
QVQLVESGGGLVQAGGSLRLSCAASGIIFDVYAMGWYIQAPGKERELVAAISSGGSTYYADSVKGRFTISRDNAKNTVYLQMNSLKPEDTAVYYCATAQSVIYRYEYWGQGTQVTVSS	low polyreactivity
QVQLVESGGGLVQAGGSLRLSCAASGIIFDYNAMGWYRPAPGKERELVAAISGRSGRTYYADSVKGRFTISRDNAKNTVYLQMNSLKPEDTAVYYCAARWYAGGNYWGQGTQVTVSS	high polyreactivity
QVQLVESGGGLVQAGGSLRLSCAASGIIFDYNAMGWYRQAPGKERELVAAISGRSGRTYYADSVKGRFTISRDNAKNTVYLQMNSLKPEDTAVYYCNALRLTRDPYDYWGQGTQVTVSS	high polyreactivity
QVQLVESGGGLVQAGGSLRLSCAASGIIFDYNAMGWYRQAPGKERELVAAITSTDNTNYADSVKGRFTISRDNAKNTVYLQMNSLKPEDTAVYYCNTDYWLSVVYAMDYWGQGTQVTVSS	low polyreactivity

Sequence	polyreactivity (PSR sort gate)
QVQLVESGGGLVQAGGSLRLSCAASGIIFDYNAMGWYRQAPGKERELVASIDSGGSTNYADSVKGRFTISRDNAKNTVYLQMNSLKPEDTAVYYSNADDTTVSPWYYYYQSYYWGQGTQVTVSS	low polyreactivity
QVQLVESGGGLVQAGGSLRLSCAASGIIFDYNAMGWYRQAPGKERELVDSIDSGCSTNYADSVKGSFTISRDNAKNTVYLQMNSLKPEDTAVYYCNADDTTVSPWYYYYQSYYWGQGTQVTVSS	low polyreactivity
QVQLVESGGGLVQAGGSLRLSCAASGIIFDYYAMGWYRQAPGKERELVATITGNSTNTYYADSVKGRFTISRDNAKNTVYLQMNSLKPEDTAVYYCATAQTRWWPSIAGYDYWGQGTQVTVSS	high polyreactivity
QVQLVESGGGLVQAGGSLRLSCAASGIIFDYYDMGWYRQAPGKERELVAAISAGGGSTYYADSVKGRFTISRDNAKNTVYLQMNSLKPEDTAVYYCAALYWRSTVGAYSTYEYDYWGQGTQVTVSS	high polyreactivity
QVQLVESGGGLVQAGGSLRLSCAASGIIFEGYAMGWYRQAPGKERELVAGITIGDITYYADSVKGRFTISRDNAKNTVYLQMNSLKPEDTAVYYCAADSYYYQTAYDSWGQGTQVTVSS	low polyreactivity
QVQLVESGGGLVQAGGSLRLSCAASGIIFESNAMGWYRQAPGKERELVAAITGRGGRTYYADSVKGRFTISRDNAKNTVYLQTNSLKPEDTAVYYCAADGLRLVPGYKYDYWGQGTQVTVSS	high polyreactivity
QVQLVESGGGLVQAGGSLRLSCAASGIIFESYAMGCYRQAPGKERELVAAISSRGGSTYYADSVKGRFTISRDNSKNTVYLQMNSLKPEDTAVYYCAADVAAGVSSYPTKYSYDYWGQGTQVTVSS	low polyreactivity
QVQLVESGGGLVQAGGSLRLSCAASGIIFEYYAKGWYRQAPGKERELVAAITSDGSTNYADSVKGRFTISRDNEKNTVYLQMNRLKPEDTAVYYCNADLKANIQGVLSTGDDYWGQGTQVTVSS	low polyreactivity
QVQLVESGGGLVQAGGSLRLSCAASGIIFEYYAMVWYRQAPGKDRELVAAISRSSVSTYYADSVKGRFTISRDNAKNTVYLQMNSLKPEDTAVYYCAARQGYGYYKYGKYYYWGQGTQVTVSS	high polyreactivity
QVQLVESGGGLVQAGGSLRLSCAASGIIFFIYAMGWYRQAPGKERELVATISWTGGSTYYADSVKGRFTISRDNAKNTVYLQMNSLKPEDTAVYYCNADEWRWDEIIPYAVDYWGQGTQVTVSS	low polyreactivity
QVQLVESGGGLVQAGGSLRLSCAASGIIFFSNAMGWYRQAPGKERELVAAIDDSDGVTYYADSVKGRFTISRDNAKNTVYLQMNSLKPEDTAVYYCAAVDGWTYTGSDYWGDGTQVTVSS	low polyreactivity
QVQLVESGGGLVQAGGSLRLSCAASGIIFGFYAMGWYREAPGKERELVADITNDGGNTNYADSVKGRFTISRDNAKNTVYLQMNSLKPEDTAVYYCNADRTQVRNRYTYATFDYWGQGTQVTVSS	low polyreactivity
QVQLVESGGGLVQAGGSLRLSCAASGIIFGGYAMGWYRQAPGKERELVASISYSGGSTYYADSVKGRFTISRDNAKNTVYLQMNSLKPEDTAVYYCAAGYPRTPAAGYYWGQGTQVTVSS	high polyreactivity
QVQLVESGGGLVQAGGSLRLSCAASGIIFGHYAMGWYRQAPGKERELVAAIRSSGGTTYYADSVKGRFTISRDNAKNTVYLQMNRLKPEDTAVYYCAKRGVHLYHDYYWGQGTQVTVSS	low polyreactivity
QVQLVESGGGLVQAGGSLRLSCAASGIIFGHYDMGWYRQAPGKERELVAAITFTGDSTYYADSVKGRFTISRDKAKNTVYLQMTSLKPEDTAVYYCAAETPVPWGSWGYDYWGQGTQVTVSS	low polyreactivity
QVQLVESGGGLVQAGGSLRLSCAASGIIFGIYDMGWSRQAPGKERELVAAIRRSGGSTYYADSVKGRFTISRDNAKNTVYLQMNSLKPEDTAVYYCAATRHSRVRGGDYWGQGTQVTVSS	low polyreactivity
QVQLVESGGGLVQAGGSLRLSCAASGIIFGKNAMGWYRHAPGKERELVAAISSSGGSTYYADSVKGRFTISRDNAKNTVYLQMNSLKPEDTAVYYCATERGSRRSGSRMDYWGQGTQVTVSS	high polyreactivity
QVQLVESGGGLVQAGGSLRLSCAASGIIFGQYAMGGYIQAPGKEREFVSAISRSGGSTNYADSVKGLFTISRDNAKNTVYLQMNSLKPEDTAVYYCNKRARHTGDFVWGHGYWGQGTQVTVSS	low polyreactivity
QVQLVESGGGLVQAGGSLRLSCAASGIIFGRNAMGWYRQAPGKERELVAAIRWSGGSTYYADSVKGRFTISRDNAKNTVYLQMNSLKPEDTAVYYCAKRYSYWSGVKYGYWGQGTQVTVSS	high polyreactivity
QVQLVESGGGLVQAGGSLRLSCAASGIIFGRNVMGWYRQAPGKERELVAAITRRGVNTYYADSVKGRFTISRDNAKNTVYLQMNSLKPEDTAVYYCAATWWQYDQGLHRYDYWGQGTQVTVSS	high polyreactivity
QVQLVESGGGLVQAGGSLRLSCAASGIIFGRYAMGWYRQAPGKERELVAAITRGGSTKYADSVKGRFTISRDNAKNTVYLQMNSLKPEDTAVYYCARVRRYPLRYNYWGQGTQVTVSS	high polyreactivity
